Legend:
[1] = molecular target: CD123 (interleukin-3 receptor a chain) on CD123-expressing OCI-AML3 blasts (human) (UniProt P26951); test: binding assay on CD123-expressing OCI-AML3 cells
[2] = molecular target: RevCAR harboring the La 5B9 epitope tag, on RevCAR expressing cells (human); test: binding assay on RevCAR expressing target cells

Chain of UniProt P26951 (P26951 19-378): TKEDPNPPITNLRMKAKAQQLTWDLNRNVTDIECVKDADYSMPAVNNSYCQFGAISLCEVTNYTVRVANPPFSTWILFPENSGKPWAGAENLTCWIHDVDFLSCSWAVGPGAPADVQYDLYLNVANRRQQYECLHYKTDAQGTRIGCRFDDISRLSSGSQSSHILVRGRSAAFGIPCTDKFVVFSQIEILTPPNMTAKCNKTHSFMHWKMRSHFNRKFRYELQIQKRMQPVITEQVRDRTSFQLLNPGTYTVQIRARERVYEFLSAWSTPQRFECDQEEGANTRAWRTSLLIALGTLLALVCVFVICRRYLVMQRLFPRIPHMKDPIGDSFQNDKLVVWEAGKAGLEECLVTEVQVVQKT

Kd [1]: 0.015 nM | Kd [2]: 0.012 nM
B1: AdMo CD123-La5B9 (CD123-specific adapter module with an scFv recognizing the La 5B9 epitope) (bispecific antibody, part only; not given: linkers, domain order, tags, V domains shown, not shown: another chain or arm of the molecule; small tags and cut ends)
VH 1: QVQLVQSGAEVKKPGASVKVSCKASGYTFTHYYIYWVRQAPGQGLEWMGGVNPSNGGTHFNEKFKSRVTMTRDTSISTAYMELSRLRSDDTAVYYCARSEYDYGLGFAYWGQGTLVTVSS
VL 1: DIVMTQSPDSLAVSLGERATINCKSSQSLLNSRTPKNYLAWYQQKPGQPPKLLIYWASTRKSGVPDRFSGSGSGTDFTLTISSLQAEDVAVYYCKQSYNLLTFGGGTKVEIK
VH 2: EVQLQQSGPELVKPGASVKMSCKASGYTFTDYYMKWVKQSHGKSLEWIGDIIPSNGATFYNQKFKGKATLTVDRSSSTAYMHLNSLTSEDSAVYYCTRSHLLRASWFAYWGQGTLVTVS
VL 2: DFVMTQSPSSLTVTAGEKVTMSCKSSQSLLNSGNQKNYLTWYLQKPGQPPKLLIYWASTRESGVPDRFTGSGSGTDFTLTISSVQAEDLAVYYCQNDYSYPYTFGGGTKLEIK
